{"source": "patent US20210062165A1", "key": {"[1]": {"biological_target": "FUS^N-FusionRed-Cry2olig-VioE", "sequence (Q96524 other isoform, or with tags, fused parts or gaps)": "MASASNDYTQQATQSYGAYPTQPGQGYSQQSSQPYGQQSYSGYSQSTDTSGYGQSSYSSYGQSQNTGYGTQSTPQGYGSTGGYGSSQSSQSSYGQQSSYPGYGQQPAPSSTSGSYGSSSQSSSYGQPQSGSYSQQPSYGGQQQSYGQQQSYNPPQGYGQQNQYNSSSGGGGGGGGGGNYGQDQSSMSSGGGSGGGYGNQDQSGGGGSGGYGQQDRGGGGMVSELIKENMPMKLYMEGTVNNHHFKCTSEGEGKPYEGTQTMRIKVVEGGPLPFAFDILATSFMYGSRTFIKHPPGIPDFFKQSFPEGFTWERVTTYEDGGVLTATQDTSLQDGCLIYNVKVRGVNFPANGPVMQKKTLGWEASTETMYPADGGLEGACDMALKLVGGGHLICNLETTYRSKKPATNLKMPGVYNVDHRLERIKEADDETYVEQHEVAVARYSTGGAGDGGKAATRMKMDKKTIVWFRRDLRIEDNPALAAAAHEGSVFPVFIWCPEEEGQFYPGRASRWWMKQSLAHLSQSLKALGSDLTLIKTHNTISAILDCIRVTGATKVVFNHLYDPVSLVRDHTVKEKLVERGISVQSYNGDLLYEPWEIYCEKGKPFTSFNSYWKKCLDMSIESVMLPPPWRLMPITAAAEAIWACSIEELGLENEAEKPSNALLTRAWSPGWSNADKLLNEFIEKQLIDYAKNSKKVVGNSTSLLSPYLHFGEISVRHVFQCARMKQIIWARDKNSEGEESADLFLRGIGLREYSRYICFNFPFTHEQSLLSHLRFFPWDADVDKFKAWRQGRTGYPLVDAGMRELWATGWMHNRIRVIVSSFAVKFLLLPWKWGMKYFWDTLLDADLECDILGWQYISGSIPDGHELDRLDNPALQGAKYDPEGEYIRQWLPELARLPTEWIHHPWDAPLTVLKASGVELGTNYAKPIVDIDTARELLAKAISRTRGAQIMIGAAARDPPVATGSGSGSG", "assay": "cell-based or functional assay"}, "FUS^N-Citrine-PixE-VioE": {"biological_target": "FUS^N-Citrine-PixE-VioE", "assay": "cell-based or functional assay"}}, "data": [{"substance": "FUS^N-Citrine-Cry2olig-VioC (from UniProt P35637 1-214; Q96524 1-498; Q9S3U9 1-429)", "values": [{"measurement": "deoxyviolacein production under continuous blue light relative to dark (HPLC, strain YNS34)", "setting": "[1]", "value": 2, "unit": "fold"}]}, {"substance": "FUS^N-FusionRed-PixD-VioC (from UniProt Q9S3U9 1-429)", "values": [{"measurement": "change in deoxyviolacein production from light to dark (HPLC, strain YEZ257, [Zeo]max 1,200 mg/L)", "setting": "FUS^N-Citrine-PixE-VioE", "value": 6.1, "unit": "fold"}, {"measurement": "change in deoxyviolacein-to-PDV ratio from light to dark (HPLC, strain YEZ257, [Zeo]max 1,200 mg/L)", "setting": "FUS^N-Citrine-PixE-VioE", "value": 18.4, "unit": "fold"}]}, {"substance": "VioC-FUS^N-Citrine-Cry2olig (from UniProt Q9S3U9 1-429; P35637 1-214; Q96524 1-498)", "values": [{"measurement": "deoxyviolacein production under continuous blue light relative to dark (HPLC, strain YNS36)", "setting": "[1]", "value": 2, "unit": "fold"}]}]}
